Source: the supplement of paper PMC10724198
± gives the standard deviation of the averaged measurements.

What was measured:
Saccharomyces cerevisiae [1] = test: protein stability index of tFT-peptide fusion (C-terminal peptide) (PSI (0-1 scale)); higher = more stable (slower turnover); conditions: genetic background: wild type; temperature: 30 C
Saccharomyces cerevisiae [2] = test: as above
Method: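 MPS profiling in S. cerevisiae of the tFT-X12 degron library: putative degron peptides plus stable controls, 12 aa, fused to the C-terminus of a sfGFP-mCherry timer. Cells are FACS-sorted into 8 mCherry/sfGFP bins and deep-sequenced. PSI runs from 0 (unstable) to 1 (stable). Backgrounds are wild type, das1Δ and doa10Δ at 30 °C, and wild type, das1Δ, cdc34-1 and cdc53-1 at 37 °C; 2-3 technical replicates each.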

[3] = genetic background: cdc34-1, temperature: 37 C
[4] = genetic background: cdc53-1, temperature: 37 C
[5] = genetic background: das1 deletion, temperature: 30 C
[6] = genetic background: das1 deletion, temperature: 37 C
[7] = genetic background: doa10 deletion, temperature: 30 C
[8] = genetic background: wild type, temperature: 30 C
[9] = genetic background: wild type, temperature: 37 C
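Further: PSI is a weighted mean of sequencing reads over stability bins, variants kept only with over 10 reads, mCherry proximal and sfGFP distal, peptide attached via GGGS linker.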

Row | Sequence | protein stability index (Saccharomyces cerevisiae [1]) | protein stability index (Saccharomyces cerevisiae [2]; [3]) | protein stability index (Saccharomyces cerevisiae [2]; [4]) | protein stability index (Saccharomyces cerevisiae [2]; [5]) | protein stability index (Saccharomyces cerevisiae [2]; [6]) | protein stability index (Saccharomyces cerevisiae [2]; [7]) | protein stability index (Saccharomyces cerevisiae [2]; [8]) | protein stability index (Saccharomyces cerevisiae [2]; [9])
1 | DFVFFLVSVRFR | 0.284 ± 0.081 | 0.103 ± 0.039 | 0.216 ± 0.059 | 0.177 ± 0.037 | 0.32 ± 0.017 | 0.15 ± 0.013 | 0.178 ± 0.03 | 0.284 ± 0.0058
2 | KIILMCYTLITL | 0.264 ± 0.015 | 0.255 ± 0.033 | 0.347 ± 0.041 | 0.228 ± 0.039 | 0.43 ± 0.018 | 0.2009 ± 0.0016 | 0.225 ± 0.017 | 0.413 ± 0.04
3 | RGFIFFALWSFC | 0.384 ± 0.08 | 0.458 ± 0.0091 | 0.544 ± 0.021 | 0.375 ± 0.031 | 0.5317 ± 0.0053 | 0.334 ± 0.021 | 0.35 ± 0.016 | 0.498 ± 0.022
4 | LIEMVTTRYRLC | 0.242 ± 0.044 | 0.59 ± 0.02 | 0.7192 ± 0.0016 | 0.622 ± 0.016 | 0.717 ± 0.034 | 0.132 ± 0.0065 | 0.128 ± 0.02 | 0.189 ± 0.018
5 | KDIFQIYTLYVF | 0.39 ± 0.034 | 0.407 ± 0.011 | 0.4611 ± 0.0014 | 0.329 ± 0.035 | 0.502 ± 0.023 | 0.277 ± 0.0099 | 0.3 ± 0.022 | 0.467 ± 0.012
6 | TLPIWLRVLIFG | 0.404 ± 0.032 | 0.341 ± 0.066 | 0.342 ± 0.038 | 0.295 ± 0.026 | 0.456 ± 0.0082 | 0.2762 ± 0.002 | 0.29 ± 0.0033 | 0.426 ± 0.014
7 | GFSVFSHSVWVR | 0.313 ± 0.014 | 0.133 ± 0.044 | 0.0797 ± 0.0059 | 0.19 ± 0.032 | 0.271 ± 0.012 | 0.437 ± 0.016 | 0.194 ± 0.011 | 0.238 ± 0.013
8 | EKTKTKRERKIN | 0.312 ± 0.028 | 0.576 ± 0.0019 | 0.696 ± 0.008 | 0.626 ± 0.045 | 0.715 ± 0.036 | 0.165 ± 0.0048 | 0.191 ± 0.015 | 0.384 ± 0.0062
9 | GELPGELYKFWL | 0.754 ± 0.03 | 0.769 ± 0.052 | 0.7774 ± 0.005 | 0.664 ± 0.022 | 0.7558 ± 0.0025 | 0.671 ± 0.024 | 0.671 ± 0.016 | 0.743 ± 0.021
10 | LSVYGFYKMPAG | 0.502 ± 0.031 | 0.501 ± 0.024 | 0.5271 ± 0.0027 | 0.487 ± 0.011 | 0.561 ± 0.018 | 0.521 ± 0.032 | 0.491 ± 0.0073 | 0.5368 ± 0.0015
11 | SLCELRCLLRVG | 0.473 ± 0.021 | 0.573 ± 0.027 | 0.636 ± 0.022 | 0.522 ± 0.017 | 0.631 ± 0.0023 | 0.471 ± 0.018 | 0.481 ± 0.018 | 0.606 ± 0.013
12 | GGMGLWCCVSVG | 0.527 ± 0.099 | 0.665 ± 0.01 | 0.6779 ± 0.0056 | 0.528 ± 0.027 | 0.68341 ± 0.00034 | 0.513 ± 0.015 | 0.54 ± 0.015 | 0.651 ± 0.0083
13 | AYVAPRRALMCS | 0.421 ± 0.069 | 0.422 ± 0.02 | 0.495 ± 0.019 | 0.352 ± 0.031 | 0.517 ± 0.011 | 0.259 ± 0.011 | 0.281 ± 0.018 | 0.406 ± 0.017
14 | WFLVFLRVGDGP | 0.474 ± 0.01 | 0.539 ± 0.01 | 0.566 ± 0.0072 | 0.362 ± 0.027 | 0.6 ± 0.0068 | 0.353 ± 0.039 | 0.378 ± 0.023 | 0.545 ± 0.016
15 | FCFVRGLLFLFF | 0.442 ± 0.06 | 0.476 ± 0.0094 | 0.574 ± 0.065 | 0.383 ± 0.035 | 0.5423 ± 0.0025 | 0.386 ± 0.013 | 0.36 ± 0.034 | 0.506 ± 0.023
16 | TCPFTIHRLKVG | 0.238 ± 0.077 | 0.63 ± 0.01 | 0.7483 ± 0.0035 | 0.617 ± 0.017 | 0.7458 ± 0.0033 | 0.118 ± 0.018 | 0.137 ± 0.028 | 0.218 ± 0.012
17 | HFASPPAPRSNL | 0.765 ± 0.0023 | 0.799 ± 0.051 | 0.819 ± 0.023 | 0.762 ± 0.03 | 0.81 ± 0.016 | 0.785 ± 0.032 | 0.785 ± 0.032 | 0.792 ± 0.014
18 | GVSLRVFVVSVC | 0.212 ± 0.053 | 0.137 ± 0.02 | 0.162 ± 0.015 | 0.219 ± 0.02 | 0.316 ± 0.0044 | 0.108 ± 0.005 | 0.122 ± 0.018 | 0.142 ± 0.0047
19 | GGYGAGLRSPLF | 0.736 ± 0.044 | 0.709 ± 0.04 | 0.755 ± 0.013 | 0.6761 ± 0.0025 | 0.741 ± 0.015 | 0.664 ± 0.014 | 0.661 ± 0.0099 | 0.729 ± 0.022
20 | LFVVFVLLTFFV | 0.279 ± 0.089 | 0.231 ± 0.039 | 0.253 ± 0.0056 | 0.243 ± 0.032 | 0.337 ± 0.014 | 0.207 ± 0.02 | 0.217 ± 0.031 | 0.29 ± 0.011
